Test results taken from patent publication US10400249B2, “HPPD variants and methods of use” (priority 2014, dated 2019).

System: Pseudomonas fluorescens HPPD protein
Assay: OD assay: HPPD activity and pI50 from HPP remaining after derivatisation with DNP
Format: biochemical
Settings: for Activity DeltaE/24 min μg Protein: HPPD enzyme activity of the clone; for tolerance (pI50) DKN: inhibitor diketonitrile (DKN), negative log of molar concentration; for tolerance (pI50) MST: inhibitor mesotrione (MST); for tolerance (pI50) Cmpd. 2: inhibitor Cmpd. 2; for tolerance (pI50) TBT: inhibitor tembotrione (TBT)
Description: HPPD proteins were produced and purified as described in WO2011/076882. The activity of HPPD proteins in absence or presence of HPPD inhibitors was determined using either the so called OD assay or the HGD assay.
• a) The OD assay: The HPPD activity was determined colourimetrically by measuring the amount of HPP remaining in the assay mixture at the end of the incubation period after derivatisation of HPP with 2,4-dinitrophenylhydrazine (DNP) to form an amber-brown colored 2,4-dinitrophenylhydrazone under alkaline conditions. The assay was carried out at room temperature in Greiner F-bottom 96 well microplates. The assay mixture contained 50 mM Tris-HCl pH 7.8, 0.5 mM HPP, 10 mM ascorbate, 650 units of catalase and appropriate amounts of purified HPPD enzyme in a total assay volume of 100 μl. The reaction was started by the addition of enzyme. After an incubation time of 24 minutes, the reaction was stopped by the addition of 50 μl of a solution of 0.04% DNP dissolved in 3.8 N HCl. After a further 15-minute incubation period 100 μl of a 5 N KOH solution was added to the reaction mixture and the amount of unconsumed HPP was measured photometrically at 405 nm. Enzyme activity was calculated as the difference in E405 between assays lacking enzyme (negative control) and the enzyme containing assays (ΔE405=E405(negative control)−E405). Enzyme activity (nmol substrate consumed per min) was calculated from a calibration curve generated from HPP. pI50-values (the negative log value of the concentration of inhibitor necessary to inhibit 50% of the enzyme activity in molar concentration were determined from dose-response plots of HPPD activity versus inhibitor concentration tested (5.0×10^−6, 1.0×10^−5, 2.5×10^−5, 4.0×10^−5, 7.0×10^−5, 1.0×10^−4, 2.0×10^−4 and 5.0×10^−4M) using the 4 Parameter Logistic Model or Sigmoidal Dose-Response Model of the ID Business Solutions Ltd. XLfit software suite. The result “>5.6” means that the inhibition at the lowest inhibitor concentration tested was higher than 85% and the pI50-value could therefore not be precisely calculated within in the range of concentration of inhibitor tested. The result “<2.5” means that the inhibition at the highest inhibitor concentration tested was lower than 25% and the pI50-value could therefore not be precisely calculated within in the range of concentration of inhibitor tested. “n.d.” means not determined. • b) The HGD assay: With the HGD assay HPPD activity was measured at room temperature by adding appropriate amounts of HPPD to a solution of 200 mM Tris-HCl pH 7.6, 10 mM ascorbate, 20 μM FeSO4, 650 units of catalase, 8 μg HGA dioxygenase (HGA: homogentisate) and 600 μM HPP in a total volume of 1 ml. Initial reaction rates in the absence or presence of inhibitors were determined from the increase in absorbance at 318 nm due to the formation of maleylacetoacetate (ε318=11,900 M−1 cm-1). pI50-values (the negative log value of the concentration of inhibitor necessary to inhibit 50% of the enzyme activity in molar concentration were determined from dose-response plots of HPPD activity versus inhibitor concentration tested using the 4 Parameter Logistic Model or Sigmoidal Dose-Response Model of the ID Business Solutions Ltd. XLfit software suite. Due to the UV absorption of the HPPD inhibitors tested, inhibitor concentrations >100 μM could not be tested. The result “<4” means that the inhibition at 100 μM inhibitor concentration was lower than 25% and the pI50-value could therefore not be precisely calculated within in the range of concentration of inhibitor tested. “n.d.” means not determined. The HGD assay allowed to continuously follow HPPD-catalyzed HGA formation over time was therefore used to determine the inhibition type of the HPPD inhibitors tested. […] When in the presence of an inhibitor the HPPD activity was inhibited but the inhibition was found not to […] in a time-dependent manner, the inhibitor was called reversible (abbreviation “rev”). […]

| Molecule | Activity DeltaE/24 min μg Protein | tolerance (pI50) DKN | tolerance (pI50) MST | tolerance (pI50) Cmpd. 2 | tolerance (pI50) TBT |
| --- | --- | --- | --- | --- | --- |
| C959: reference PfHPPD mutant E335P (protein, HPPD variant - C959) MADLYENPMGLMGFEFIEFASPTPGTLEPIFEIMGFTKVATHRSKNVHLYRQGEINLILNNEPNSIASYFAAEHGPSVCGMAFRVKDSQKAYNRALELGAQPIHIDTGPMELNLPAIKGIGGAPLYLIDRFGEGSSIYDIDFVYLEGVERNPVGAGLKVIDHLTHNVYRGRMVYWANFYEKLFNFREARYFDIKGEYTGLTSKAMSAPDGMIRIPLNEESSKGAGQIEEFLMQFNGEGIQHVAFLTDDLVKTWDALKKIGMRFMTAPPDTYYEMLEGRLPDHGEPVDQLQARGILLDGSSVEGDKRLLLQIFSETLMGPVFFEFIQRKGDDGFGPGNFKALFESIERDQVRRGVLTAD | 0.09 DeltaE/24 min μg Protein | 5.5 | >5.6 |  |  |
| PfHPPD: wild-type Pseudomonas fluorescens HPPD, reference protein (protein, Pseudomonas Fluorescens) MADLYENPMGLMGFEFIEFASPTPGTLEPIFEIMGFTKVATHRSKNVHLYRQGEINLILNNEPNSIASYFAAEHGPSVCGMAFRVKDSQKAYNRALELGAQPIHIDTGPMELNLPAIKGIGGAPLYLIDRFGEGSSIYDIDFVYLEGVERNPVGAGLKVIDHLTHNVYRGRMVYWANFYEKLFNFREARYFDIKGEYTGLTSKAMSAPDGMIRIPLNEESSKGAGQIEEFLMQFNGEGIQHVAFLTDDLVKTWDALKKIGMRFMTAPPDTYYEMLEGRLPDHGEPVDQLQARGILLDGSSVEGDKRLLLQIFSETLMGPVFFEFIQRKGDDGFGEGNFKALFESIERDQVRRGVLTAD | 0.76 DeltaE/24 min μg Protein | >5.6 | >5.6 | >5.6 | >5.6 |
| K299: PfHPPD carrying only the P215L mutation, used as a second reference (protein, HPPD variant - K299) MADLYENPMGLMGFEFIEFASPTPGTLEPIFEIMGFTKVATHRSKNVHLYRQGEINLILNNEPNSIASYFAAEHGPSVCGMAFRVKDSQKAYNRALELGAQPIHIDTGPMELNLPAIKGIGGAPLYLIDRFGEGSSIYDIDFVYLEGVERNPVGAGLKVIDHLTHNVYRGRMVYWANFYEKLFNFREARYFDIKGEYTGLTSKAMSAPDGMIRILLNEESSKGAGQIEEFLMQFNGEGIQHVAFLTDDLVKTWDALKKIGMRFMTAPPDTYYEMLEGRLPDHGEPVDQLQARGILLDGSSVEGDKRLLLQIFSETLMGPVFFEFIQRKGDDGFGEGNFKALFESIERDQVRRGVLTAD | 0.17 DeltaE/24 min μg Protein | 5.1 | 5.5 | >5.6 | >5.6 |
| K405: PfHPPD variant A188G, R189C, P215A, E335P, G336F, A340E (protein, HPPD variant - K405, PfHPPD variant A188G, R189C, P215A, E335P, G336F, A340E) MADLYENPMGLMGFEFIEFASPTPGTLEPIFEIMGFTKVATHRSKNVHLYRQGEINLILNNEPNSIASYFAAEHGPSVCGMAFRVKDSQKAYNRALELGAQPIHIDTGPMELNLPAIKGIGGAPLYLIDRFGEGSSIYDIDFVYLEGVERNPVGAGLKVIDHLTHNVYRGRMVYWANFYEKLFNFREGCYFDIKGEYTGLTSKAMSAPDGMIRIALNEESSKGAGQIEEFLMQFNGEGIQHVAFLTDDLVKTWDALKKIGMRFMTAPPDTYYEMLEGRLPDHGEPVDQLQARGILLDGSSVEGDKRLLLQIFSETLMGPVFFEFIQRKGDDGFGPFNFKELFESIERDQVRRGVLTAD | 0.16 DeltaE/24 min μg Protein | 3.3 | 3.7 | 4.9 | 4.8 |
| K406: PfHPPD variant A188G, R189G, P215N, E335P, G336F, A340E (protein, HPPD variant - K406, PfHPPD variant A188G, R189G, P215N, E335P, G336F, A340E) MADLYENPMGLMGFEFIEFASPTPGTLEPIFEIMGFTKVATHRSKNVHLYRQGEINLILNNEPNSIASYFAAEHGPSVCGMAFRVKDSQKAYNRALELGAQPIHIDTGPMELNLPAIKGIGGAPLYLIDRFGEGSSIYDIDFVYLEGVERNPVGAGLKVIDHLTHNVYRGRMVYWANFYEKLFNFREGGYFDIKGEYTGLTSKAMSAPDGMIRINLNEESSKGAGQIEEFLMQFNGEGIQHVAFLTDDLVKTWDALKKIGMRFMTAPPDTYYEMLEGRLPDHGEPVDQLQARGILLDGSSVEGDKRLLLQIFSETLMGPVFFEFIQRKGDDGFGPFNFKELFESIERDQVRRGVLTAD | 0.52 DeltaE/24 min μg Protein | <2.5 | 3.5 | 5.6 | 4.5 |
| K407: PfHPPD variant A188G, R189E, P215N, E335P, G336F, A340E (protein, HPPD variant - K407, PfHPPD variant A188G, R189E, P215N, E335P, G336F, A340E) MADLYENPMGLMGFEFIEFASPTPGTLEPIFEIMGFTKVATHRSKNVHLYRQGEINLILNNEPNSIASYFAAEHGPSVCGMAFRVKDSQKAYNRALELGAQPIHIDTGPMELNLPAIKGIGGAPLYLIDRFGEGSSIYDIDFVYLEGVERNPVGAGLKVIDHLTHNVYRGRMVYWANFYEKLFNFREGEYFDIKGEYTGLTSKAMSAPDGMIRINLNEESSKGAGQIEEFLMQFNGEGIQHVAFLTDDLVKTWDALKKIGMRFMTAPPDTYYEMLEGRLPDHGEPVDQLQARGILLDGSSVEGDKRLLLQIFSETLMGPVFFEFIQRKGDDGFGPFNFKELFESIERDQVRRGVLTAD | 0.41 DeltaE/24 min μg Protein | <2.5 | 3.6 | 5.7 | 4.6 |
| K408: PfHPPD variant A188G, R189D, P215N, E335P, G336F, A340E (protein, HPPD variant - K408, PfHPPD variant A188G, R189D, P215N, E335P, G336F, A340E) MADLYENPMGLMGFEFIEFASPTPGTLEPIFEIMGFTKVATHRSKNVHLYRQGEINLILNNEPNSIASYFAAEHGPSVCGMAFRVKDSQKAYNRALELGAQPIHIDTGPMELNLPAIKGIGGAPLYLIDRFGEGSSIYDIDFVYLEGVERNPVGAGLKVIDHLTHNVYRGRMVYWANFYEKLFNFREGDYFDIKGEYTGLTSKAMSAPDGMIRINLNEESSKGAGQIEEFLMQFNGEGIQHVAFLTDDLVKTWDALKKIGMRFMTAPPDTYYEMLEGRLPDHGEPVDQLQARGILLDGSSVEGDKRLLLQIFSETLMGPVFFEFIQRKGDDGFGPFNFKELFESIERDQVRRGVLTAD | 0.56 DeltaE/24 min μg Protein | <2.5 | 3.6 | 5.7 | 4.6 |
